These results are taken from the supplement of paper PMC5998384.

Data set [1] has as its system HeLa Kyoto. Put plainly: solubility change mitosis vs G1/S (difference of NP-40 vs SDS log2 ratios) (log2 ratio difference); higher = more soluble in mitosis.
For data set [2], the system named is HeLa Kyoto. Put plainly: solubility in G1/S (NP-40 vs SDS abundance) (log2 ratio); higher = more soluble. The settings on record: cell cycle stage: G1/S.
For data set [3], the system named is HeLa Kyoto. Put plainly: melting temperature (median over replicates), in situ; higher = more thermally stable.
For data set [4], the system named is HeLa Kyoto. Put plainly: thermal stability score vs G1/S (z-score of summed log2 fold changes over temperatures); higher = more thermally stable than in G1/S.
[5] abbreviates: cell cycle stage: early G1 (4.5 h after nocodazole release).
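Throughout, for melting temperature (median over replicates), in situ: HeLa Kyoto cells synchronized by double thymidine or nocodazole block, proteins quantified by TMT10plex mass spectrometry, three independent biological replicates.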
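Throughout, for solubility change mitosis vs G1/S (difference of NP-40 vs SDS log2 ratios): synchronized HeLa Kyoto cells (double thymidine block for G1/S, nocodazole release for mitosis), protein amounts in NP-40 versus SDS lysates quantified by mass spectrometry, three biological replicates.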
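Throughout, for solubility in G1/S (NP-40 vs SDS abundance): HeLa Kyoto cells arrested at G1/S by double thymidine block, proteins quantified by TMT10plex mass spectrometry in mild NP-40 versus SDS extracts, three biological replicates.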
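Throughout, for thermal stability score vs G1/S (z-score of summed log2 fold changes over temperatures): synchronized HeLa Kyoto cells, proteins quantified by TMT10plex mass spectrometry, three biological replicates, mitosis taken 0.5 h after nocodazole release, G1/S directly after double thymidine block.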

With “MAGPGWGPPRLDGFILTERLGSGTYATVYKAYAKKDTREVVAIKCVAKKSLNKASVENLLTEIEILKGIRHPHIVQLKDFQWDSDNIYLIMEFCAGGDLSRFIHTRRILPEKVARVFMQQLASALQFLHERNISHLDLKPQNILLSSLEKPHLKLADFGFAQHMSPWDEKHVLRGSPLYMAPEMVCQRQYDARVDLWSMGVILYEALFGQPPFASRSFSELEEKIRSNRVIELPLRPLLSRDCRDLLQRLLERDPSRRISFQDFFAHPWVDLEHMPSGESLGRATALVVQAVKKDQEGDSAAALSLYCKALDFFVPALHYEVDAQRKEAIKAKVGQYVSRAEELKAIVSSSNQALLRQGTSARDLLREMARDKPRLLAALEVASAAMAKEEAAGGEQDALDLYQHSLGELLLLLAAEPPGRRRELLHTEVQNLMARAEYLKEQVKMRESRWEADTLDKEGLSESVRSSCTLQ [ULK3]”, the “solubility change mitosis (log2)” value in data set [1] was -0.125. For the same substance, the “solubility in G1/S (log2)” value in data set [2] came to 0.0298. For the same substance, the results for the melting temperature in data set [3] (cell cycle stage: G1/S) and in data set [3] (cell cycle stage: mitosis) were 49.9 °C and 49.6 °C, respectively. For the same substance, the thermal stability score in data set [4] (setting [5]) is -0.375; in data set [4] (cell cycle stage: mitosis), -0.212.
As to “MRKMLAAVSRVLSGASQKPASRVLVASRNFANDATFEIKKCDLHRLEEGPPVTTVLTREDGLKYYRMMQTVRRMELKADQLYKQKIIRGFCHLCDGQEACCVGLEAGINPTDHLITAYRAHGFTFTRGLSVREILAELTGRKGGCAKGKGGSMHMYAKNFYGGNGIVGAQVPLGAGIALACKYNGKDEVCLTLYGDGAANQGQIFEAYNMAALWKLPCIFICENNRYGMGTSVERAAASTDYYKRGDFIPGLRVDGMDILCVREATRFAAAYCRSGKGPILMELQTYRYHGHSMSDPGVSYRTREEIQEVRSKSDPIMLLKDRMVNSNLASVEELKEIDVEVRKEIEDAAQFATADPEPPLEELGYHIYSSDPPFEVRGANQWIKFKSVS [PDHA1]”, the “solubility change mitosis (log2)” value in data set [1] was -0.122. Also, the “solubility in G1/S (log2)” value in data set [2] turned out to be 0.149. The results for the melting temperature in data set [3] (cell cycle stage: G1/S) and in data set [3] (cell cycle stage: mitosis) were 52.1 °C and 51.5 °C, respectively. Also, the thermal stability score was -1.47 in data set [4] (setting [5]) and -2.37 in data set [4] (cell cycle stage: mitosis).
Regarding AHNAK2, the “solubility change mitosis (log2)” value in data set [1] is -0.0597. Further, the “solubility in G1/S (log2)” value in data set [2] worked out at 0.073. For the same substance, the melting temperature in data set [3] (cell cycle stage: G1/S) is 53 °C; in data set [3] (cell cycle stage: mitosis), 53.5 °C. Further, the figures for the thermal stability score in data set [4] (setting [5]) and in data set [4] (cell cycle stage: mitosis) were 0.749 and 3.16, respectively.
“MAGVACLGKAADADEWCDSGLGSLGPDAAAPGGPGLGAELGPGLSWAPLVFGYVTEDGDTALHLAVIHQHEPFLDFLLGFSAGTEYMDLQNDLGQTALHLAAILGETSTVEKLYAAGAGLCVAERRGHTALHLACRVGAHACARALLQPRPRRPREAPDTYLAQGPDRTPDTNHTPVALYPDSDLEKEEEESEEDWKLQLEAENYEGHTPLHVAVIHKDVEMVRLLRDAGADLDKPEPTCGRSPLHLAVEAQAADVLELLLRAGANPAARMYGGRTPLGSAMLRPNPILARLLRAHGAPEPEGEDEKSGPCSSSSDSDSGDEGDEYDDIVVHSSRSQTRLPPTPASKPLPDDPRPV [NFKBIB]”: the “solubility change mitosis (log2)” value in data set [1] is -0.224. The “solubility in G1/S (log2)” value in data set [2] was 0.533. Further, the melting temperature came to 49.3 °C in data set [3] (cell cycle stage: G1/S) and 50 °C in data set [3] (cell cycle stage: mitosis). In addition, the thermal stability score was found to be 0.217 in data set [4] (setting [5]) and 0.0879 in data set [4] (cell cycle stage: mitosis).
Take “MNKLYIGNLSENAAPSDLESIFKDAKIPVSGPFLVKTGYAFVDCPDESWALKAIEALSGKIELHGKPIEVEHSVPKRQRIRKLQIRNIPPHLQWEVLDSLLVQYGVVESCEQVNTDSETAVVNVTYSSKDQARQALDKLNGFQLENFTLKVAYIPDEMAAQQNPLQQPRGRRGLGQRGSSRQGSPGSVSKQKPCDLPLRLLVPTQFVGAIIGKEGATIRNITKQTQSKIDVHRKENAGAAEKSITILSTPEGTSAACKSILEIMHKEAQDIKFTEEIPLKILAHNNFVGRLIGKEGRNLKKIEQDTDTKITISPLQELTLYNPERTITVKGNVETCAKAEEEIMKKIRESYENDIASMNLQAHLIPGLNLNALGLFPPTSGMPPPTSGPPSAMTPPYPQFEQSETETVHLFIPALSVGAIIGKQGQHIKQLSRFAGASIKIAPAEAPDAKVRMVIITGPPEAQFKAQGRIYGKIKEENFVSPKEEVKLEAHIRVPSFAAGRVIGKGGKTVNELQNLSSAEVVVPRDQTPDENDQVVVKITGHFYACQVAQRKIQEILTQVKQHQQQKALQSGPPQSRRK [IGF2BP3]”: the “solubility change mitosis (log2)” value in data set [1] is 0.0855. Also, the “solubility in G1/S (log2)” value in data set [2] turned out to be 0.241. Also, the melting temperature came to 46.9 °C in data set [3] (cell cycle stage: G1/S) and 47.6 °C in data set [3] (cell cycle stage: mitosis). Besides, the figures for the thermal stability score in data set [4] (setting [5]) and in data set [4] (cell cycle stage: mitosis) were 0.549 and 0.841, respectively.
Take “MEKSSSCESLGSQPAAARPPSVDSLSSASTSHSENSVHTKSASVVSSDSISTSADNFSPDLRVLRESNKLAEMEEPPLLPGENIKDMAKDVTYICPFTGAVRGTLTVTNYRLYFKSMERDPPFVLDASLGVINRVEKIGGASSRGENSYGLETVCKDIRNLRFAHKPEGRTRRSIFENLMKYAFPVSNNLPLFAFEYKEVFPENGWKLYDPLLEYRRQGIPNESWRITKINERYELCDTYPALLVVPANIPDEELKRVASFRSRGRIPVLSWIHPESQATITRCSQPMVGVSGKRSKEDEKYLQAIMDSNAQSHKIFIFDARPSVNAVANKAKGGGYESEDAYQNAELVFLDIHNIHVMRESLRKLKEIVYPNIEETHWLSNLESTHWLEHIKLILAGALRIADKVESGKTSVVVHCSDGWDRTAQLTSLAMLMLDGYYRTIRGFEVLVEKEWLSFGHRFQLRVGHGDKNHADADRSPVFLQFIDCVWQMTRQFPTAFEFNEYFLITILDHLYSCLFGTFLCNSEQQRGKENLPKRTVSLWSYINSQLEDFTNPLYGSYSNHVLYPVASMRHLELWVGYYIRWNPRMKPQEPIHNRYKELLAKRAELQKKVEELQREISNRSTSSSERASSPAQCVTPVQTVV [MTMR2]”: the “solubility change mitosis (log2)” value in data set [1] was -0.12. Moreover, the “solubility in G1/S (log2)” value in data set [2] is 0.0322. For the same substance, the melting temperature is 53.4 °C in data set [3] (cell cycle stage: G1/S) and 53 °C in data set [3] (cell cycle stage: mitosis). In addition, the results for the thermal stability score in data set [4] (setting [5]) and in data set [4] (cell cycle stage: mitosis) were -1.45 and -1.51, respectively.
In the case of “MACLLETPIRMSVLSEVTASSRHYVDRLFDPDPQKVLQGVIDMKNAVIGNNKQKANLIVLGAVPRLLYLLQQETSSTELKTECAVVLGSLAMGTENNVKSLLDCHIIPALLQGLLSPDLKFIEACLRCLRTIFTSPVTPEELLYTDATVIPHLMALLSRSRYTQEYICQIFSHCCKGPDHQTILFNHGAVQNIAHLLTSLSYKVRMQALKCFSVLAFENPQVSMTLVNVLVDGELLPQIFVKMLQRDKPIEMQLTSAKCLTYMCRAGAIRTDDNCIVLKTLPCLVRMCSKERLLEERVEGAETLAYLIEPDVELQRIASITDHLIAMLADYFKYPSSVSAITDIKRLDHDLKHAHELRQAAFKLYASLGANDEDIRKKIIETENMMDRIVTGLSESSVKVRLAAVRCLHSLSRSVQQLRTSFQDHAVWKPLMKVLQNAPDEILVVASSMLCNLLLEFSPSKEPILESGAVELLCGLTQSENPALRVNGIWALMNMAFQAEQKIKADILRSLSTEQLFRLLSDSDLNVLMKTLGLLRNLLSTRPHIDKIMSTHGKQIMQAVTLILEGEHNIEVKEQTLCILANIADGTTAKDLIMTNDDILQKIKYYMGHSHVKLQLAAMFCISNLIWNEEEGSQERQDKLRDMGIVDILHKLSQSPDSNLCDKAKMALQQYLA [ARMC8]”, in data set [1], the “solubility change mitosis (log2)” value is -0.195. In addition, the “solubility in G1/S (log2)” value in data set [2] is -0.0698. In addition, the results for the melting temperature in data set [3] (cell cycle stage: G1/S) and in data set [3] (cell cycle stage: mitosis) were 51.1 °C and 51 °C, respectively. In addition, the thermal stability score in data set [4] (setting [5]) was -0.497; in data set [4] (cell cycle stage: mitosis), 0.122.
As to “MNTVLSRANSLFAFSLSVMAALTFGCFITTAFKDRSVPVRLHVSRIMLKNVEDFTGPRERSDLGFITFDITADLENIFDWNVKQLFLYLSAEYSTKNNALNQVVLWDKIVLRGDNPKLLLKDMKTKYFFFDDGNGLKGNRNVTLTLSWNVVPNAGILPLVTGSGHVSVPFPDTYEITKSY [SPCS3]”, the “solubility change mitosis (log2)” value in data set [1] was -0.0576. Moreover, in data set [2], the “solubility in G1/S (log2)” value came out at 0.0331. For the same substance, the melting temperature in data set [3] (cell cycle stage: G1/S) was determined as 53.5 °C; in data set [3] (cell cycle stage: mitosis) it was 53.8 °C. For the same substance, the figures for the thermal stability score in data set [4] (setting [5]) and in data set [4] (cell cycle stage: mitosis) were 0.503 and 1.67, respectively.
With “MAEPTVCSFLTKVLCAHGGRMFLKDLRGHVELSEARLRDVLQRAGPERFLLQEVETQEGLGDAEAEAAAGAVGGGGTSAWRVVAVSSVRLCARYQRGECQACDQLHFCRRHMLGKCPNRDCWSTCTLSHDIHTPVNMQVLKSHGLFGLNENQLRILLLQNDPCLLPEVCLLYNKGEALYGYCNLKDKCNKFHVCKSFVKGECKLQTCKRSHQLIHAASLKLLQDQGLNIPSVVNFQIISTYKHMKLHKMLENTDNSSPSTEHSQGLEKQGVHAAGAAEAGPLASVPAQSAKKPCPVSCEK [ZC3HAV1L]”, the “solubility change mitosis (log2)” value in data set [1] was -0.0672. Further, the “solubility in G1/S (log2)” value in data set [2] came out at 0.135. The melting temperature in data set [3] (cell cycle stage: G1/S) and in data set [3] (cell cycle stage: mitosis) was 50.2 °C throughout. Further, the values for the thermal stability score in data set [4] (setting [5]) and in data set [4] (cell cycle stage: mitosis) were 0.166 and -0.0104, respectively.
